# What was measured:
# [1] = biological target: T1, HER2-ECD (human, UniProt P04626 23-652); experiment: direct phage ELISA, proteins coated at 2 µg/ml, phage-Fab supernatant, OD450;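 note: specificity test of dual-activity clones, with binding assessed across an antigen panel to check whether each recognises only its cognate target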
# T1 construct: extracellular domain
# Procedure: (§1) To determine if the nine clones with dual activities were specific to their cognate targets, their binding to a panel of antigens in a direct plate ELISA format was evaluated.
# (§2) 2 μg/ml of several proteins were coated on immunoplates overnight at 4° C.
# [2] = biological target: T2, HER4-ECD-Fc (human, UniProt Q15303 26-651, limits assumed); experiment: as above
# T2 construct: extracellular domain
# T2 sequence (looked up): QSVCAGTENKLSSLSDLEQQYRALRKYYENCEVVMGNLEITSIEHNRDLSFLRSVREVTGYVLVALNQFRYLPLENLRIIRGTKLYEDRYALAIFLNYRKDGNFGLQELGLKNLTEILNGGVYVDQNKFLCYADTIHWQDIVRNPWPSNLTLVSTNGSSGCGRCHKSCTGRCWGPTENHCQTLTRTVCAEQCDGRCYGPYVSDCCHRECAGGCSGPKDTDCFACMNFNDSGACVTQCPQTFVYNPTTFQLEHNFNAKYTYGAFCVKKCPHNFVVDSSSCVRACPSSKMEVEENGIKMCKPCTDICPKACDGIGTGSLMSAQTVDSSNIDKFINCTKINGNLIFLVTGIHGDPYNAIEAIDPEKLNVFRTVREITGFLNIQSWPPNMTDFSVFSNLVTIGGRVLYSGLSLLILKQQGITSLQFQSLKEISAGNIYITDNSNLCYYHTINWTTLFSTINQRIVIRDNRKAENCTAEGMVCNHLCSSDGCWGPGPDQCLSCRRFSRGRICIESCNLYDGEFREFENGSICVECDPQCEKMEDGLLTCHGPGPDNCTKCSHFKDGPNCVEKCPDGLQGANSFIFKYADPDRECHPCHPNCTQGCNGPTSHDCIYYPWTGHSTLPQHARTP
# Procedure: as §1, §2
# [3] = biological target: T3, BSA (bovine, UniProt P02769); experiment: as above
# T3 construct: also called bovine serum albumin
# T3 sequence (P02769 25-607 limits assumed): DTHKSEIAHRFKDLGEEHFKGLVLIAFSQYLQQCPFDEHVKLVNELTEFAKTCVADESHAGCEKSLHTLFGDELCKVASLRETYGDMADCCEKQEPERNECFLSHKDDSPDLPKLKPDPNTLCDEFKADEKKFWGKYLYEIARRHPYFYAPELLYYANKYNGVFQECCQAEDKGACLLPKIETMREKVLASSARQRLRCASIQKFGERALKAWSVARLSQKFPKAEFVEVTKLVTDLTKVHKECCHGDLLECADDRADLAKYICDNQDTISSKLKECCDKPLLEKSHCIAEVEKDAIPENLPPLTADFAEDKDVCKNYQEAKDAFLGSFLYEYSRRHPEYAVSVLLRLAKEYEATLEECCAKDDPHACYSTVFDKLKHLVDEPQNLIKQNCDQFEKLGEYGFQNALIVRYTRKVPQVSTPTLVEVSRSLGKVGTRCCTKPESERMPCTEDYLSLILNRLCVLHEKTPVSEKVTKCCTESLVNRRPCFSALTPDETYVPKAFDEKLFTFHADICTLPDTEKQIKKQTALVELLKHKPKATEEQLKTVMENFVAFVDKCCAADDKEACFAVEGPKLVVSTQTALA
# Procedure: as §1, §2
# [4] = biological target: T4, hEGFR-ECD (human, UniProt P00533 25-645); experiment: phage solution binding competition ELISA as in Example 1, antigen in solution varied
# T4 construct: extracellular domain
# Procedure: (§3) IC₅₀ was calculated as the concentration of antigen in solution-binding stage that inhibited 50% of the phage from binding to immobilized antigen. The solution binding competition ELISA was performed at room temperature.
# [5] = biological target: T5, HER3-ECD-Fc (human, UniProt P21860 20-643, limits assumed); experiment: phage solution binding competition ELISA as in Example 1, antigen in solution varied; experiment of paragraph 431 (compared with DL7 and DL11)
# T5 construct: extracellular domain; also called HER3-FC; HER3-IgG
# Procedure: as §3
# [6] = biological target: T5, HER3-ECD-Fc; experiment: phage solution binding competition ELISA; experiment of paragraph 433 (compared with DL3.1-3.7)
# [7] = biological target: T5, HER3-ECD-Fc; experiment: direct phage ELISA, proteins coated at 2 µg/ml, phage-Fab supernatant, OD450;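 note: specificity test of dual-activity clones, with binding assessed across an antigen panel to check whether each recognises only its cognate target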
# Procedure: as §1, §2
# [8] = biological target: T6, Xolair; experiment: as above
# T6 construct: not shown: the constant regions
# [9] = biological target: T4, hEGFR-ECD; experiment: phage solution binding competition ELISA: hEGFR-ECD in solution varied, unbound phage captured on antigen-coated plate
# Procedure: as §3
Binder,binding result [1],binding result [2],binding result [3],IC50 [4] [nM],IC50 [5] [nM],IC50 [6] [nM],binding result [7],binding result [8],IC50 [9] [nM]
"D1.5-100 (phage-displayed Fab clone) (Fab, V domains shown, also called DL1.5-100) VH: EVQLVESGGGLVQPGGSLRLSCAASGFTFTGNWIHWVRQAPGKGLEWVGEISPSGGYTDYADSVKGRFTISADTSKNTAYLQMNSLRAEDTAVYYCARESRVSYEAAMDYWGQGTLVTVSS VL: DIQMTQSPSSLSASVGDRVTITCRASQDLATDVAWYQQKPGKAPKLLIYSASFLYSGVPSRFSGSGSGTDFTLTISSLQPEDFATYYCQQSEPEPYTFGQGTKVEIKR",no binding,no binding,no binding,44,0.1,4.6,–,–,–
"D1.5 (phage-displayed Fab clone) (Fab, V domains shown) VH: EVQLVESGGGLVQPGGSLRLSCAASGFTFTGNWIHWVRQAPGKGLEWVGEISPSGGYTDYADSVKGRFTISADTSKNTAYLQMNSLRAEDTAVYYCARESRVSYEAAMDYWGQGTLVTVSS VL: DIQMTQSPSSLSASVGDRVTITCRASQDVSTAVAWYQQKPGKAPKLLIYSASFLYSGVPSRFSGSGSGTDFTLTISSLQPEDFATYYCQQSYPTPYTFGQGTKVEIKR",no binding,no binding,no binding,–,–,–,no binding,no binding,0.39
